Test: soluble on expression in E. coli; label from the status in PepcDB or PDB records
For “MYYAIPTVVVSECLGFSACRYNGDIIRNSFVSRLGEFARLVPVCPEVAIGLGVPRETVRLVKRGEERRLVQSSTNRDWTREMNEFATSFFGQVGEVDGFILKGRSPTCGIKDVRVYDDEESGMVVEKGVGLFAEHVFRRFPNAAIEEEGRLTNAAIREHFLTKVFALALFREVKAKRSMKALVQFHSEHKYLFMAYSQTWLKQLGRLVANRDRLPVEQVLEAYGQGLHALFARAPQRRSHVNVCQHLMGYFKKEMSAKEKQYVLELLAQYRAQQLPLSSVASVLKSWAIREENDYLLQQRYFAPYPPALLDVRDSGKGREKAV”, the “soluble on expression in E. coli” value was “not soluble”.
In the case of “NATLKGLKLSERSTTEIQLLAEQAITVSKQEVKEFTYKVESNKQFEATVKIKADLKIDPTKAMSHIENIFKDDETKKKDAQNSLTMSMGQNEALEATFTYSPATQGIFGRASFDRFTSNIKLNTKLRIQVSSTSDLMKKLLENSLTSSLKDQSFDNEGVNLFPYTLFAL”, the “soluble on expression in E. coli” value was “not soluble”.
For “NDAIIILNGEKVLDLNKKGREAFGLGARELDNISIGSLLSEKDLPAVRDALKTTLENGSACFEMKFRKQNGEVIDVEVSSSFLSLEEGEIQCVARD”, the “soluble on expression in E. coli” value was “not soluble”.
For “NDPDADRFALAARKPDGGYKMLTGDQVGTLFGHYLLTHTEASGKLVGNTIVSSTLLKKIAESMGAEYFQTLTGFKWLTNVAMQKETKEKQFLFAYEEALGYTIGSQVWDKDGLSALVAFAQLTAELATQGKCVWDQLESIYRQHGIHIN”, the “soluble on expression in E. coli” value was “not soluble”.
For “NDTVLIAGAGHAGFQVAVSLRQAKYPGRIALINDEKHLPYQRPPLSKAYLKSGGDPNSLMFRPEKFFQDQAIELISDRMVSIDREGRKLLLASGTAIEYGHLVLATGARNRMLDVPNASLPDVLYLRTLDESEVLRQRMPDKKHVVVIGAGFIGLEFAATARAKGLEVDVVELAPRVMARVVTPEISSYFHDRHSGAGIRMHYGVRATEIAAEGDRVTGVVLSDGNTLPCDLVVVGVGVIPNVEIAAAAGLPTAAGIIVDQQLLTSDPHISAIGDCALFESVRFGETMRVESVQNATDQARCVAARLTGDAKPYDGYPWFWSDQGDDKLQIVGLTAGFDQVVIRGSVAERSFSAFCYKAGKLIGIESVNRAADHVFGRKILPLDKSVTPEQAADLSFDLKKAAA”, the “soluble on expression in E. coli” value was “soluble”.
For “NEPFHLATERNRVAVMSSGGKESLTTFGMLREIGADVFPVFFNESGGHWKTAKIAYDYMKKNYSNVHKVWSNVDRFYSFMNGHMPMLDQKEIRKTADSYPVQ”, the “soluble on expression in E. coli” value was “not soluble”.
With “NFLLTQPHSVSESPGKTVTISCTRSSGSIANNYVHWYQQRPGSSPTTVIFEDDHRPSGVPDRFSGSVDTSSNSASLTISGLKTEDEADYYCQSYDHNNQVFGGGTKLTVLG” the “soluble on expression in E. coli” value was “soluble”.
With “NFNSQNGVNKDEKDHLIERLYREISGLKAQLENMKTESQRVVLQLKGHVSELEADLAEQQHLRQQAADDCEFLRAELDELRRQREDTEKAQRSLSEIERKAQANEQRYSKLKEKYSELVQ” the “soluble on expression in E. coli” value was “soluble”.
With “NGFQKEIRGQLLNVAPHAEIGYIDNTDTDWRNLLRFTENRKGILAAAPYVSNQALLANAGEIRGVQMRGILPSEERKVVEYGDKMPAGKFEDLIPGEFDIILGVGLAEALGAEVGNKVTVITPEGNVTPAGVVPRLKQFTVVGLVKTGVYEVDNSLAMTHIQDARVLYRLDKEVAGLRLKLADPQNAPALTATLIPEAQRDAVWVRDWTYSNRSYFEAVELEKR” the “soluble on expression in E. coli” value was “soluble”.
With “NGQIMYRIVTVQDSTERLESQSALRESEERFRSVVESAPDAIFIQTGGRFAYLNHSAIALFGASKAEEILGRRVADQIHPDYRDLVAERIRLLNERQ” the “soluble on expression in E. coli” value was “not soluble”.
With “NGVPSTNVNTPAPNTGQSTAQNTNTASPLPYNRATTLPAAGTEDLKKSVQALQNTLTELQALQLQTKQAHWNVSGTLWYTLHELLQDHYEGISKFADDVAERQLSVGASSDGRAITIVAASRLPEIPGGFLDDAQVIQFFTYQYETVGQRIHQRVGDVEKVDPTTANLLQEVEHIIEKYQWQMRAFLQNTPTDPNTGFDINNGKPVPLRGR” the “soluble on expression in E. coli” value was “soluble”.
For “NHYLQAEVVTAFLGLQHAAKRADFNLQPASTYRDFNRQMLIWNAKFNGKRKIHNDASKQIDITTLTDLAKIKAILRWSAVPGASRHHWGTEIDIFDPDLLPQGQHLQLEPWEYQSNGYFAPLIKWLHQHSASFGFYFPFDGIQNSQ”, the “soluble on expression in E. coli” value was “not soluble”.
In the case of “NIGSGTDEKTATARAKVVDWCNELVIASPSTKCELLAKVQETVLGSCAELAEEFLESVLSLAHDSNMEVRKQVVAFVEQVCKVKVELLPHVINVVSMLLRDNSAQVIKRVIQACGSIYKNGLQYLCSLMEPGDSAEQAWNILSLIKAQILDMIDNENDGIRTNAIKFLEGVVVLQSFADEDSLKRDGDFSLADVPDHCTLFRREKLQEEGNNILDILLQFHGTTHISSVNLIACTSSLCTIAKMRPIFMGAVVEAFK”, the “soluble on expression in E. coli” value was “soluble”.
For “NIITVTLNMERHHFLGISIVGQSNDRGDGGIYIGSIMKGGAVAADGRIEPGDMLLQVNDVNFENMSNDDAVRVLREIVSQTGPISLTVAK”, the “soluble on expression in E. coli” value was “soluble”.
With “NKDFEWSTTGTFSLNSNKLISLSGSIFKSDYDYFNTGTVEYSGQVADSHRVQVGESIGNFYGFKVVDVDSEGRWIYEDRNGELVNYKDFTHAPEDKHVIGNGLPKWYAGWNNTLRYKNFDLNVTMRGAFGFQIINGGRMNYENVKNSRFENRLKSVNDLVFGKHTLSPEVEPEFNSYYVEDGDYWKIDNITLGYSFGQVGKYIKSLRIYGSVLNALTITGYKGIDPEVSTDGLTPGYDTRDRYPSVRSFTFGVNVKF” the “soluble on expression in E. coli” value was “not soluble”.
With “NKDMALTVRGNFTHAENEVIYWEQSGVNYPYQSNSGVPYKVQRGLIALGLFKDEDDIKSSPKQTFMDNYRPGDIKYKDVNGDGKIDKDDVVPLNYSAVPFIQYGFALDWNYKAFRVSILFEGVSKVQYFQGGRGFYPFLNESRGNLLEMVADPRNRWIPREYAEVNGIDPALAENPNAKFPRLTYGENKNNNQESTFWLADGKYLRLKNVDVSYRFTNNWLKSRVGVESATLSLIGENLHVWDKVKLFDPSQASGNGAEYPLQRMYTLQLNLTF” the “soluble on expression in E. coli” value was “not soluble”.
For “NKNLWATIRGNFTYASSKFSKYEEPDYSATPWRSKIGTKLSQEFGLIAERLFVDEEDVANSPKQQFGEYMAGDIKYKDINHDGIIDEQDRVPIGYPTTPEIIYGFGFSIGYKDFDFNCFFQGSSRSSFFISPADISPFIQPNDPNNELGGKQATNALLQIVADDHWSEANQNMYAFWPRLSDTAISNNNQKSTWWLRDGTFLRMKSAEIGYTLPKRISSKAKLENFRIYVSGTNLFNISKFKTWDTEMGGNGLGYPVQRVFNIGVQLSL”, the “soluble on expression in E. coli” value was “not soluble”.
In the case of “NKYYKLGEIAQKVLVGGEKPADFSKEKNEVYKYPILSNNSKAEEFLVYSKTFRVEEKSITVSARGTIGAVFYRDFAYLPAVSLICFVPKEEFDIRFLFHALRAIKFKKQGSATGQLTVAQFKEYGIHVPSLKKQKEIAAILDPLYS”, the “soluble on expression in E. coli” value was “not soluble”.
With “NLHLLEYLHILPLDKIGIPKFAPKLDRKKHGDLDRPNLIYPADEQIYIHVYPDKNDMRNFYIPIEPTLLTGVDELLKEVEIRLVDYITDIDF” the “soluble on expression in E. coli” value was “not soluble”.
For “NLQPLETTITDVERFKDTVTLELSCPSCDKRFPFGGIVSSNYYRVSYNGLQCKHCEQLFTPLQLTSQIEHSIRAHISLYYAGWLQCDDSTCGIVTRQVSVFGKRCLNDGCTGVMRYKYSDKQLYNQLLYFDSLFDCEKNKKQELKPIYLPDDLDYPKEQLTESSIKALTEQNRELMETGRSVVQKYLNDCGRRYVDMTSIFDFMLN”, the “soluble on expression in E. coli” value was “soluble”.
With “NMDVDIMSNQDEWRLYRYFIGRSKQTYARPSGSGTSTNEILQEGYYKVPIFARSRYWFNGEYWPALFEQAYANWKFPNDSKYNAILQIGGGWPEEALCELSGDSWFTSSGKLMLSSFTDLSLLNFMKSMCYSWKTIKPMVIVTPCWEPLPPMMPGIAAYH” the “soluble on expression in E. coli” value was “not soluble”.
In the case of “NMIKAAISRQREFLADASAVQFTRNDQGIAGALKKIGSNVQGSTLNTKASDEMSHMMFGQSKLSGFSGLFATHPPLDERIRRIEPNWDGSYAQHSHAQNTAFDNEQVSGFAVGGGSPASQSASPSEQLSETGQQLISQLPPELVDIAREPYSARFIAFALIFDGSDIQREMIKSYVPLASQSTLLPWLDYDLPLHLRFPLLELALPALKSLSEAQKISLCKVLRELSETDNQYSLAEWCVINLLEKQLLASFGFIKQHKSLKQLEESVFWLLRELAWVSHSQADKAQRAYHCALAHLGFPEVKLEPANSNWHLSRAALELLLQLKPNDRRMFVKACRLAIESDGEITVAEGEIYRVIACFLEVPEPPLTISG”, the “soluble on expression in E. coli” value was “not soluble”.
With “NPIEMDYIRQIEDVNNRRMKALRPPHRKEVLKAREDDIKDRVQNWMSRENEPRLQRISSELLKEYDSTELVASLLQELVEANDEVE” the “soluble on expression in E. coli” value was “not soluble”.
In the case of “NPNTCTESIGKVAPSYVDEPESEAPATAENTQPDVIIDWQAALKQSANKEDLAKDMLRMLIDFIPEVEEVVDHALEQDDYSREELIHVIHKLHGSSSYCGVPRLKSLCATLEHALRSGASIEEIEPEMFELQDEMIKVTTTAKLYLEQ”, the “soluble on expression in E. coli” value was “not soluble”.
In the case of “NRYAKLCMEREINKRTVLMQEMELENYKKINQANDKYMELLHNSNHYMRTVYGLLEQDNKDEAINIMDSVLTEYEEGELIEYSTNSILNTILSEYYDKSKTNHIEFNIFVEPGFNIECVESMDLVAMVSNLISNAYEAALKSDEKKIKVQMYMQNDGSFIIIKIENSFSGEIVSQGDRLLTTKKDGNIHGVGIESVEKVAEKYDGWVSTSWGNKSFRTMLVLNNSYVV”, the “soluble on expression in E. coli” value was “not soluble”.
For “NSVLFPCKYASSGCEITLPHTEKAEHEELCEFRPYSCPCPGASCKWQGSLDAVMPHLMHQHKSITTLQGEDIVFLATDINLPGAVDWVMMQSCFGFHFMLVLEKQEKYDGHQQFFAIVQLIGTRKQAENFAYRLELNGHRRRLTWEATPRSIHEGIATAIMNSDCLVFDTSIAQLFAENGNLGINVTISMC”, the “soluble on expression in E. coli” value was “soluble”.
For “NTDKHIYLEEHISPESQPMLSTYFRSMGKPRSIKENVLTVPQDASPETLALYYFARIYLERYEGVPLPDDMPDLIEFGRKHNMPWVVAEAKLNKAIRMIELDDDWHAELLLHDVIGESRDIGYLALQGRAYRWMGNLEIARNQIHNGLKHYRTAYELLENTVFEIQVAMTLNNIGTVYLDSSDWNRASNYLKQALDVYESSEYEYDNS”, the “soluble on expression in E. coli” value was “not soluble”.
With “NTPYLRPEMFPELAILQQNWQVIRDEGLHLQQLEQIKAADKYNDAGFNSFFKTGWKRFYLKWYEDAHPSASQLCPQTTALLRDIPSVKAAMFATLPDGSRLPRHRDPYAGSLRFHLGLATPNDDRCFIEVDGQRYSWRDGEGVLFDETYIHYAENTSGENRLILFCDIERPMRYRWAQKVNHWLGRHLMSAASAPN” the “soluble on expression in E. coli” value was “not soluble”.
In the case of “NVPVGMSIGVYDYELSDYAERMDAISGGAIRSSFARNGGIGFDIGASLQIGYMIKFTDSIGLSILAEAGYSHDTYSYISRLDKNNSYSYSFESLQLGVIPKFNIKNFAIGIGGGVKIPLAGNIHTKTSLFESNTKLTSDDIKRLYEKALMPYIKVTFDYSIFFTQKTAFNIGLYLGYDFGLEPNIYTVDGAIDGNRLVVDEVSYSSFDVGLQVGLKFGPSTK”, the “soluble on expression in E. coli” value was “not soluble”.
